Experimental findings from paper doi:10.1101/2025.06.12.659319 are described below.

Experiment [1] deals with FITC-ΔNp63α NLSbip peptide (residues 278-302) (human). Briefly: fluorescence polarisation. For orientation: In fluorescence polarisation assays a small probe gives low polarisation when free and higher when bound to something large.
The target in experiment [2] is T1, ΔNp63α (RLuc- and YFP-fusions, full length) (human), Q9H3D4.
T1 chain: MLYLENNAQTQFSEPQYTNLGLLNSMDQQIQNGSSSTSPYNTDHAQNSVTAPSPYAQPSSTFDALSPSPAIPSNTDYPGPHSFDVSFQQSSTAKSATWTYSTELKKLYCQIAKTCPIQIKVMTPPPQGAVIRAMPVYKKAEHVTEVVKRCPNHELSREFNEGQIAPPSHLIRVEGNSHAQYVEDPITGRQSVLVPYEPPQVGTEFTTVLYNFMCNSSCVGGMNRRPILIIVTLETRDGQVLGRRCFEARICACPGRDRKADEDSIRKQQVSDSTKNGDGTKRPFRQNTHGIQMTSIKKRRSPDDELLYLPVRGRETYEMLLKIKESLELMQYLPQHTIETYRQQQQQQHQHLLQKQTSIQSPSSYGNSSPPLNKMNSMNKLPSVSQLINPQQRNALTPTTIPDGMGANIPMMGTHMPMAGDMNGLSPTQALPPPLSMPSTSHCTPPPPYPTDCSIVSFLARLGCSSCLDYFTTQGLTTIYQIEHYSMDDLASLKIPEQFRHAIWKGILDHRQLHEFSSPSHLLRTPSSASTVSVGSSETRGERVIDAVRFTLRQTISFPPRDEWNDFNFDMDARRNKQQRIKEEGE
Briefly: FRET or BRET. Particulars: remark: other sources report otherwise. In general terms: BRET reads energy transfer from a luciferase to a nearby fluorophore.

Take “human IMPα1ΔIBB (importin α1 lacking the IMPβ1 binding domain) (domain or fragment)”: in experiment [1], the Kd – broadly, the constant that tells how readily two partners part at equilibrium – came out at 4.3 nM.

In experiment [1], “human IMPα3ΔIBB (importin α3 lacking the IMPβ1 binding domain) (domain or fragment)” displayed a Kd of 6.7 nM.

In experiment [1], “human IMPα7ΔIBB (importin α7 lacking the IMPβ1 binding domain) (domain or fragment)” gave a Kd of 4.6 nM.

B1: ΔNp63α (RLuc- and YFP-fusions, full length), Q9H3D4-2 1-586 (natural protein)
chain: MLYLENNAQTQFSEPQYTNLGLLNSMDQQIQNGSSSTSPYNTDHAQNSVTAPSPYAQPSSTFDALSPSPAIPSNTDYPGPHSFDVSFQQSSTAKSATWTYSTELKKLYCQIAKTCPIQIKVMTPPPQGAVIRAMPVYKKAEHVTEVVKRCPNHELSREFNEGQIAPPSHLIRVEGNSHAQYVEDPITGRQSVLVPYEPPQVGTEFTTVLYNFMCNSSCVGGMNRRPILIIVTLETRDGQVLGRRCFEARICACPGRDRKADEDSIRKQQVSDSTKNGDGTKRPFRQNTHGIQMTSIKKRRSPDDELLYLPVRGRETYEMLLKIKESLELMQYLPQHTIETYRQQQQQQHQHLLQKQTSIQSPSSYGNSSPPLNKMNSMNKLPSVSQLINPQQRNALTPTTIPDGMGANIPMMGTHMPMAGDMNGLSPTQALPPPLSMPSTSHCTPPPPYPTDCSIVSFLARLGCSSCLDYFTTQGLTTIYQIEHYSMDDLASLKIPEQFRHAIWKGILDHRQLHEFSSPSHLLRTPSSASTVSVGSSETRGERVIDAVRFTLRQTISFPPRDEWNDFNFDMDARRNKQQRIKEEGE
Take B1: in experiment [2], the BRET ratio stood at 0.18.
